According to patent publication US20030064916A1 (Scripps Research, published 2003):

B1: hu-wt-p53 69-78 (peptide)
peptide: AAPPVAPAPA
B2: hu-wt-p53 110-119 (peptide)
peptide: RLGILHSGTA
B3: hu-wt-p53 187-195 (peptide)
peptide: GLAPPQHLI
B4: hu-wt-p53 161-169 (peptide)
peptide: AIYKQSQHM
B5: hu-wt-p53 78-86 (peptide)
peptide: AAPTPAAPA
B6: hu-wt-p53 146-155 (peptide)
peptide: WVDSTPPPGT
B7: hu-wt-p53 339-247 (peptide)
peptide: EMFRELNEA
B8: hu-wt-p53 69-76 (peptide)
peptide: AAPPVAPA
B9: hu-wt-p53 43-52 (peptide)
peptide: LMLSPDDIEQ
B10: hu-wt-p53 42-50 (peptide)
peptide: DLMLSPDDI
B11: hu-wt-p53 210-218 (peptide)
peptide: NTFRHSVVV
B12: hu-wt-p53 69-79 (peptide)
peptide: AAPPVAPAPAA
B13: hu-wt-p53 31-40 (peptide)
peptide: VLSPLPSQAM
B14: hu-wt-p53 322-330 (peptide)
peptide: PLDGEYFTL
notes: also called hu-p53.322-330
B15: hu-wt-p53 255-264 (peptide)
peptide: ITLEDSSGNL
B16: p53.65-73 (peptide)
peptide: RMPEAAPPV
notes: also called hu-wt-p53 65-73; hu-p53.65-73
B17: p53.149-157 (peptide)
peptide: STPPPGTRV
B18: hu-wt-p53 117-125 (peptide)
peptide: GTAKSVTCT
B19: hu-wt-p53 73-81 (peptide)
peptide: VAPAPAAPT
B20: hu-wt-p53 31-39 (peptide)
peptide: VLSPLPSQA
B21: p53.25-35 (peptide)
peptide: LLPENNVLSPL
notes: also called hu-wt-p53 25-35; hu-p53.25-35
B22: hu-wt-p53 25-33 (peptide)
peptide: LLPENNVLS
B23: hu-wt-p53 136-144 (peptide)
peptide: QLAKTCPVQ
B24: mur-wt-p53 261-269 (peptide)
peptide: LLGRDSFEV
notes: also called mur-p53.261-269
B25: hu-wt-p53 263-272 (peptide)
peptide: NLLGRNSFEV
B26: hu-wt-p53 122-130 (peptide)
peptide: VTCTYSPAL

The binders below were run against HLA-A2.1 (human, UniProt A*02:01) (assay: competition on EA2 cells: test peptide (100 mM [sic]) vs M1 58-66 (1 mM [sic]); % inhibition of CTL clone 12 lysis, E:T 0.3:1).

First: B1
Second: B2
The “% inhibition of A2.1-binding of M1 (58-66)” value (“% inhibition” below) of the first is higher: 41% for the first, 10% for the second.

Going from B3 to B4, the “% inhibition” value falls from 62% to 12%.

First: B5
Second: B6
The “% inhibition” value of the first is higher: 51% for the first, 10% for the second.

Going from B7 to B8, the “% inhibition” value rises from 12% to 46%.

Compared with B9, B10 is lower in “% inhibition” value: 25% for the first, 19% for the second.

Compared with B11, B12 is lower in “% inhibition” value: 43% for the first, 4% for the second.

Compared with B13, B14 is higher in “% inhibition” value: 23% for the first, 24% for the second.

First: B15
Second: B16
The “% inhibition” value of the first is lower: 24% for the first, 62% for the second.

First: B17
Second: B18
The “% inhibition” value of the first is higher: 29% for the first, 12% for the second.

Compared with B19, B20 is higher in “% inhibition” value: 12% for the first, 38% for the second.

Going from B21 to B22, the “% inhibition” value falls from 65% to 42%.

First: B23
Second: B24
The “% inhibition” value of the first is lower: 15% for the first, 75% for the second.

Compared with B25, B26 is lower in “% inhibition” value: 50% for the first, 12% for the second.
